# In patent publication US12297265B2, “Antibody and use thereof” (SICHUAN KELUN-BIOTECH BIOPHARMACEUTICAL CO., LTD., priority 2018, dated 2025):
# Positions count from the first letter of the chain named.
# B1: 1E9.2-hz41: humanized antibody of 1E9.2; VH SEQ ID NO: 32, VL SEQ ID NO: 33 (antibody, V domains shown)
# VH: EVQLVESGGGLVKPGGSLRLSCAASGFSFSNSAMSWVRQAPGKGLEGVATISSGDSYTYYPDSVKGRFTISRDNAKNSLYLQMNSLRAEDTAVYYCARQGYGNALDYWGQGTLVTVSS
# VL: DIVMTQSPDSLAVSLGERATINCKSSQSLLNSGNQKNYLTWYQQKPGQPPKLLIYWSSTRESGVPDRFSGSGSGTDFTLTISSLQAEDFAVYYCQNDYYYPLTFGGGTKVEIK
# modifications: heavy chain variable region of humanized antibody 1E9.2hz41; light chain variable region of humanized antibody 1E9.2hz11/1E9.2hz21/1E9.2hz31/1E9.2hz41
# B2: 1E9.2-hz21: humanized antibody of 1E9.2; VH SEQ ID NO: 30, VL SEQ ID NO: 33 (antibody, V domains shown)
# VH: B1 VH with A49S, P61A
# VL: B1 VL
# modifications: heavy chain variable region of humanized antibody 1E9.2hz21; light chain variable region of humanized antibody 1E9.2hz11/1E9.2hz21/1E9.2hz31/1E9.2hz41
# B3: 1E9.2-hz31: humanized antibody of 1E9.2; VH SEQ ID NO: 31, VL SEQ ID NO: 33 (antibody, V domains shown)
# VH: B1 VH with P61A
# VL: B1 VL
# modifications: heavy chain variable region of humanized antibody 1E9.2hz31; light chain variable region of humanized antibody 1E9.2hz11/1E9.2hz21/1E9.2hz31/1E9.2hz41
# B4: 19G10.14: mouse anti-human Claudin18.2 monoclonal antibody; VH SEQ ID NO: 52, VL SEQ ID NO: 53 (antibody, V domains shown)
# VH: QVQLKESGPGLVAPSQSLSITCTVSGFSFTSYGVHWVRQPPGKGLEWLGVIWAGGSTDYNAALMSRLSIRKDNSKSQVFLKMNSLQIADTAMYYCARDGHGKVGFDVWGAGTTVTVSS
# VL: DIVMTQSPSSLSVSAGEKVTMNCKSSQSLLNSGNQKNYLAWYQQKPGQPPKLLIYGASTRESGVPDRFTGGGSGTDFTLTISSVQAEDLAIYYCQNDHFYPFTFGSGTKLEIK
# modifications: heavy chain variable region sequence of mouse antibody 19G10.14; light chain variable region sequence of mouse antibody 19G10.14
# B5: 6B9.22: mouse anti-human Claudin18.2 monoclonal antibody; VH SEQ ID NO: 50, VL SEQ ID NO: 51 (antibody, V domains shown)
# VH: QVQLQQSGAELVKPGASVKMSCKAFGYTFTSYPIEWMKQNHGKSLEWIGNFHPYNDDTKYNEKFKGKAKLTVEKSSSTVYLELSRLTSDDSAVYYCARTYYGNSFAYWGQGTLVTVSS
# VL: DIVMTQSPSSLTVTAGEKVTMSCKSSQSLLNSGNQKNYLTWYQQKPGQPPKLLIYWASSRDSGVPHRFTGSGSGTDFTLTISSVQAEDLAFYYCQNDYFYPFTFGAGTKLELK
# modifications: heavy chain variable region sequence of mouse antibody 6B9.22; light chain variable region sequence of mouse antibody 6B9.22
# B6: 16A9.11: mouse anti-human Claudin18.2 monoclonal antibody; VH SEQ ID NO: 46, VL SEQ ID NO: 47 (antibody, V domains shown)
# VH: EVMLVESGGGLVKPGGSLKLSCAASGFSFSNSAMSWVRQTPEKRLEGVATISSGDSYTYYPDSVKGRFTISRDTAKNSLYLQMSSLRSEDTAVYYCTRQGYGNAMDYWGQGTSVTVSS
# VL: B5 VL with A57S, S59T, D61E, H66D, F91V, F99Y, F102L
# modifications: heavy chain variable region sequence of mouse antibody 16A9.11; light chain variable region sequence of mouse antibody 16A9.11
# B7: 19H11.6: mouse anti-human Claudin18.2 monoclonal antibody; VH SEQ ID NO: 44, VL SEQ ID NO: 45 (antibody, V domains shown)
# VH: B6 VH with Y57F, S63T, T74N, S85R, T97A, M105L
# VL: B5 VL with S22T, A57S, S59T, D61E, H66D, F91V, F99Y, F102L
# modifications: heavy chain variable region sequence of mouse antibody 19H11.6; light chain variable region sequence of mouse antibody 19H11.6
# B8: 2C6.9: mouse anti-human Claudin18.2 monoclonal antibody; VH SEQ ID NO: 3, VL SEQ ID NO: 4 (antibody, V domains shown)
# VH: QVQLKESGPGLVAPSQSLSITCTVSGFSLTRYGVSWVRQPPGKGLEWLGVIWGDGNTNFHSFLKSRLSISKDSSKSQVFLKLNSLQTDDTATYYCARVNFGNALDYWGQGTSVTVSS
# VL: B5 VL with K18E, S59T, H66D, A86S, F91V, Y98F, F99I, Y100F, F102L
# modifications: heavy chain variable region of mouse antibody 2C6.9; light chain variable region of mouse antibody 2C6.9
# B9: 9C8.1: mouse anti-human Claudin18.2 monoclonal antibody; VH SEQ ID NO: 48, VL SEQ ID NO: 49 (antibody, V domains shown)
# VH: QVQLQQSGAELVRPGSSVKISCKASGYAFSNYWMNWVKQRPGQGLEWIGQIYPGDGDTNYNGKFKGKATLTTDKSSSTAYMQLSSLTSEDSAVYFCARLYYGNSFAYWGQGTLVTVSS
# VL: B5 VL with M21V, S59T, D61E, H66D, E87A, F91I, A106G, L112I
# modifications: heavy chain variable region sequence of mouse antibody 9C8.1; light chain variable region sequence of mouse antibody 9C8.1
# B10: 1E9.2: mouse anti-human Claudin18.2 monoclonal antibody; VH SEQ ID NO: 1, VL SEQ ID NO: 2 (antibody, V domains shown)
# VH: B6 VH with T74N, T97A, M105L
# VL: B5 VL with A57S, S59T, D61E, H66D, F91V, F99Y, F102L
# modifications: heavy chain variable region of mouse antibody 1E9.2; light chain variable region of mouse antibody 1E9.2
# Biological target: T1, human Claudin18.2 (Homo sapiens, UniProt P56856)
# Experiment: Affinity of chimeric and humanized antibodies to Ba/F3-Claudin 18.2 cells (IntelliCyt)
# Type: binding
# Design: expressed in transfected cells; host or cells: Ba/F3 (BaF/3, DSMZ ACC300), hygromycin-selected monoclonal line
# Excerpt: In order to evaluate the anti-Claudin18.2 humanized antibodies, codon optimized cDNAs of the heavy chains and the light chains of the candidate humanized antibodies from Example 6 were synthesized and ligated into pcDNA3.4 (by Nanjing Genscript Biotech Corporation). Expi293F cells (purchased from Thermo Incorporation) were co-transfected with pcDNA3.4 coding the heavy chain and light chain of each antibody. The antibodies were purified from the supernatant using protein A (MabSelect SuRe, GE). The affinity of the humanized antibodies to Claudin18.2 was determined using Ba/F3-Claudin18.2 cells which over-expressed human Claudin18.2. Ba/F3-Claudin18.2 cells (60000 in 10 ul buffer) were incubated with purified humanized antibodies on ice for 30 min, followed by washing with buffer (PBS+2% FBS) twice and addition of Alexa647-labeled goat-anti-human IgG Fc antibody (1:500 dilution). The cells were incubated on ice for another 30 min and analyzed by IntelliCyt.
row,Molecule,Max MFI
1,B1,11.28 ×10^6
2,B2,14.56 ×10^6
3,B3,10.64 ×10^6

# Biological target: T1, human Claudin18.2
# Experiment: FACS affinity of mouse anti-human Claudin18.2 antibodies to Ba/F3-Claudin 18.2 cells
# Type: binding
# Design: expressed in transfected cells; host or cells: Ba/F3 (BaF/3, DSMZ ACC300), hygromycin-selected monoclonal line
# Experimental: The affinity of the candidates to Claudin18.2 was measured using FACS. Single hybridoma clone 1E9.2, 2C6.9, 6B9.22, 9C8.1, 16A9.11, 19G10.14 and 19H11.6 were cultured in serum-free medium and mouse antibodies were purified from 100 mL supernatant by protein A chromatography (MabSelect SuRe, GE). Ba/F3-Claudin18.1 and Ba/F3-Claudin18.2 cells were incubated with the purified mouse antibodies at various concentrations on ice for 30 min and mouse IgG was used as negative control (Thermo Fisher, Cat: 31903), followed by washing with FACS buffer (PBS+2% FBS) twice. The cells were then incubated with a fluorescent goat-anti-mouse secondary antibody (Jackson ImmunoResearch, Cat: 115-605-071) on ice for 30 min before FACS analysis.
row,Molecule,Max MFI (Max Mean Fluorescence Intensity)
1,B4,3.501 ×10^6
2,B5,3.624 ×10^6
3,B6,5.815 ×10^6
4,B7,6.008 ×10^6
5,B8,6.111 ×10^6
6,B9,4.969 ×10^6
7,B10,5.085 ×10^6
